Results as given in article PMC9753473 (The EMBO Journal, 2022).

B1: GST‐tagged CrIFT57(1–234) (domain or fragment, Chlamydomonas reinhardtii, UniProt Q2XQY7 1-234, looked up)
chain: MSSKRGGRSSLAKAPEEAVNGEAFAPEASPPPPGDDGDAGGEDGGAPAPPPPPATKGGPVAVGRSLEIQTTPDVCMEMLADKLKLLNYEADFCRKKKPYRKPLSRLYFAVPLANSSEQFFYFTSLATWLLGLAGVELPAPKEFDDPNLTCQNILGAVKKLGFAPPSYHPTKLTVGNGKEVVGVLDGLVDFVLERRHHKYSRPAYGNDGQPEEGVQLDDEAEAAAMEGADELAMP
B2: Chlamydomonas reinhardtii IFT46(188–319) (domain or fragment, UniProt A2T2X4 188-319, looked up)
chain: QLRQLSKEAPGAKADMVGRLEHTDENKAKKIQQWIASINDIHKAKPAATVNYSKRMPEIEALMQEWPPEVETFLKTMHMPSGDVELDIKTYARLVCTLLDIPVYDDPVESLHVLFTLYLEFKNNPIFRQHME
B3: Chlamydomonas reinhardtii IFT74(128‐C) (domain or fragment, UniProt Q6RCE1 128-641, looked up)
chain: GVGRQVLDKNYFMNELRQKRMEIAQVTSNMKSDLEALERKQAQYNSMDKRASDLSKEVKILQEALADYNTVLDKVGSQAPVYVIQQEFAALKDRNEQQRKRVDEVLTERLNLESKAKQAESKMSEIQASMDQRLNSMPPSQRNEYTTLVAEQQQLQADSKRFEEVLDELDKALQASEGELARNPFKQRSLQLQEQIRALTEKKYELTEEERQSKRSPEELRADLMAKIKRDNTEVEQMTQQIRELQDQIKKMEERVKSLGGATSGAAAAEEKANREKFEELLAKERDLNNFMDGFPSRKAAKMQEKQQKEDGIVGVLEKMVKMQGIIGSNLPSQKKYKEMQDELEYKKMQLENTQTTQERLKEELTMRRTELEKIDTLEDKIKLELTQLAERQEAMEKEMGEFGSVEDIQRKANAARERMEGLRSVLLKRKDLLRSIVAERGLKFQAKRAQLQDHNLQVQLEKMEAKLKNLSAGVFEMDEFIKAKESETNYRQLASNIAALVDDLNVHVKKAVV
B4: Chlamydomonas reinhardtii IFT25(1–136) (domain or fragment, UniProt B8LIX8 1-136, looked up)
chain: MKDYAREENGGLVVMASCSDERFPPENMLDGKDNTFWVTTGMFPQEFVLRLESCIRVSKITTLSLNVRKLAVEKCDQDKPDQFEKVFEVELANRGDRLQTEVHQVNIRAKYLKFILLQGHGEFATVNRVSVVGGDD
B5: Chlamydomonas reinhardtii IFT27 (natural protein)
chain: MVKKEVKPIDITATLRCKVAVVGEATVGKSALISMFTSKGSKFLKDYAMTSGVEVVVAPVTIPDTTVSVELFLLDTAGSDLYKEQISQYWNGVYYAILVFDVSSMESFESCKAWFELLKSARPDRERPLRAVLVANKTDLPPQRHQVRLDMAQDWATTNTLDFFDVSANPPGKDADAPFLSIATTFYRNYEDKVAAFQDACRNY

Experiments:
[1] = biological target: T1, CrIFT172(1–968) (Chlamydomonas reinhardtii, UniProt Q5DM57 1-968); assay: pull-down
T1 sequence (looked up): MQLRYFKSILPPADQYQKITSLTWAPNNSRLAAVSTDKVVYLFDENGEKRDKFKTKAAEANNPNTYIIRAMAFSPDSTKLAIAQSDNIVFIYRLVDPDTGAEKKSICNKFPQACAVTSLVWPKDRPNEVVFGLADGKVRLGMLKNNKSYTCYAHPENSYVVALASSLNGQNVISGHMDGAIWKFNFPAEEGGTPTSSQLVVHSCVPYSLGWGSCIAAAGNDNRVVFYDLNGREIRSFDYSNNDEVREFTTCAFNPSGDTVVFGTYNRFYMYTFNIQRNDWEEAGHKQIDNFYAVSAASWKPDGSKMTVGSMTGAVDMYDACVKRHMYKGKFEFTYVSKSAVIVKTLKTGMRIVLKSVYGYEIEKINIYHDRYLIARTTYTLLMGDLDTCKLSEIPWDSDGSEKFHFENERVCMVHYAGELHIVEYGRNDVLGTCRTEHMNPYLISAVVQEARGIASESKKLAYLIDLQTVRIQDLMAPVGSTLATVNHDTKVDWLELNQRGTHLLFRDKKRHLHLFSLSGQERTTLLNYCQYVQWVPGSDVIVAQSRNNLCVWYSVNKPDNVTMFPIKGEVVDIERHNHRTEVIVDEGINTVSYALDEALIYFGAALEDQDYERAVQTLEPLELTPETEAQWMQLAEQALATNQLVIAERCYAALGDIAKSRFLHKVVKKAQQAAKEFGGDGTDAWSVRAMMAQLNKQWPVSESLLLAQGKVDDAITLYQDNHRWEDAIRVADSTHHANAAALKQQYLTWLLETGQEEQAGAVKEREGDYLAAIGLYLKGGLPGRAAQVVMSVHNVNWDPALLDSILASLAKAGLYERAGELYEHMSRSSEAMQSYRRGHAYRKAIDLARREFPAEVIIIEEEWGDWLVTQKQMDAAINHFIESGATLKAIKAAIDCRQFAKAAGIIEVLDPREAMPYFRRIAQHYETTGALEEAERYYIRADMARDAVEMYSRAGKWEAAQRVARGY

[2] = biological target: T2, Chlamydomonas reinhardtii IFT81 (Chlamydomonas reinhardtii, UniProt Q68RJ5 1-683); assay: cross-linking
T2 sequence (looked up): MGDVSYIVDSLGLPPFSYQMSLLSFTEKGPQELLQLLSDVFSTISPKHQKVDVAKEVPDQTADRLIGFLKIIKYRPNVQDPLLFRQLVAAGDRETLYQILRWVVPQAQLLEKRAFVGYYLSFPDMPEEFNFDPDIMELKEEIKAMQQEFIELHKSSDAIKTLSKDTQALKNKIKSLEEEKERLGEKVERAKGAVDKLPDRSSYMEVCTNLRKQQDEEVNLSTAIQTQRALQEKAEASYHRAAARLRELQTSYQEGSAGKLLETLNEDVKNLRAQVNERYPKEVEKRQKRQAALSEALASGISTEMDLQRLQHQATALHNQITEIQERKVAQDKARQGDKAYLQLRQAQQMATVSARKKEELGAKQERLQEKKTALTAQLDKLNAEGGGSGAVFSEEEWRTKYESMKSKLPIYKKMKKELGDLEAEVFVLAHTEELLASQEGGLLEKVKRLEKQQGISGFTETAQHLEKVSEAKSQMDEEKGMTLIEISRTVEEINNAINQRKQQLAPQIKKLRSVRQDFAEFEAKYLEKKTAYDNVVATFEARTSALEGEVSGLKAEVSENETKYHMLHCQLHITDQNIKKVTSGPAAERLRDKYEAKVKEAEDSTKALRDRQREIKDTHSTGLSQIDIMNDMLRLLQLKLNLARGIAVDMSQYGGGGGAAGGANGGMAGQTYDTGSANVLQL

[3] = biological target: B3; assay: cross-linking
[4] = biological target: T3, Chlamydomonas reinhardtii IFT81/74(128‐C) heterodimer (Chlamydomonas reinhardtii, UniProt Q68RJ5 1-683; Q6RCE1 128-641); assay: cross-linking
T3 sequence (looked up) 1: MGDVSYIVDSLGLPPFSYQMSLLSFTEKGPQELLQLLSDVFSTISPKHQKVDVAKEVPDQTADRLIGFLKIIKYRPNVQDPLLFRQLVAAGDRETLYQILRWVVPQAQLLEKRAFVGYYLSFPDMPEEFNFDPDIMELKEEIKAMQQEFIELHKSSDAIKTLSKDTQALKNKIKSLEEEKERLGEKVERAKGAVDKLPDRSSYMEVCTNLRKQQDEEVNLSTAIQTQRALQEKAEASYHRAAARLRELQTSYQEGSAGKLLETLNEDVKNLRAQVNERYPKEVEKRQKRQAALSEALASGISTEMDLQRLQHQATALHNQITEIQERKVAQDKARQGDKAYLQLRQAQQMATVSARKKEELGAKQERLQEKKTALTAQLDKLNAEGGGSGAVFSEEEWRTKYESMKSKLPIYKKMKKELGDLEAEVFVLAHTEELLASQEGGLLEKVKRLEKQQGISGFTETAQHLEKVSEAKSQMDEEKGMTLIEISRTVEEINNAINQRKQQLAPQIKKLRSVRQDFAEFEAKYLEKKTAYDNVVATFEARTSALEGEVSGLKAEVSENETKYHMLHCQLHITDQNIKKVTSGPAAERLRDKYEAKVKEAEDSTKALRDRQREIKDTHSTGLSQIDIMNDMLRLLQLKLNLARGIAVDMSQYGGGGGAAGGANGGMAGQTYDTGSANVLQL
T3 sequence (looked up) 2: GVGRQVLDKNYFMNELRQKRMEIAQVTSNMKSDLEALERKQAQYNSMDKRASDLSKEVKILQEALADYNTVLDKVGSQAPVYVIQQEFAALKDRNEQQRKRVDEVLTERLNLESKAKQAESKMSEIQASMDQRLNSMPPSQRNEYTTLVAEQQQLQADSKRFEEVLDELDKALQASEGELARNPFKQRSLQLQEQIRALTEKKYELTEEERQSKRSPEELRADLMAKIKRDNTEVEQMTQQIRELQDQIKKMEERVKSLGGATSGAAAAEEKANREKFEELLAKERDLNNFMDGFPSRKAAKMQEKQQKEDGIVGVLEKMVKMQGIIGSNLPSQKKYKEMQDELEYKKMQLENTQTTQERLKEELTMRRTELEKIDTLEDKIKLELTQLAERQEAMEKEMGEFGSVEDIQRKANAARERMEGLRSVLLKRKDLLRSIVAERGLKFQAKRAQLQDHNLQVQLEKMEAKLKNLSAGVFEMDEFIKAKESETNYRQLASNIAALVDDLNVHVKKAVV

| Binder | binding result [2] | binding result [4] | further results |
| --- | --- | --- | --- |
| B1 | – | – | binding result [1]: binds |
| B2 | binds | – | binding result [3]: binds |
| B3 | binds | – | – |
| B4 | – | binds | – |
| B5 | – | binds | – |
